The conditions of data set [1]: rat, in vivo; cited from earlier work.
Data set [2] is classed as biochemical. The settings on record: for ability to degrade ochratoxin A: enzyme screen, 20 h. How it is done: Activity was expressed in % OT-α (product of OTA) area: the area corresponding to the product divided by the total area (peak area of OTA plus OT-α).
The buffers employed in the assay were: 50 mM sodium acetate buffer (pH 4, 4.5, 5 and 5.5); 50 mM MES buffer (pH 6, 6.5 and 7); 0.2M Mops-NaOH) pH7.0), 50 mM Tris-HCl buffer (pH 7.5, 8 and 8.5). Ochratoxin A (OTA) solution (1 mg/mL) was made of 5 mg ochratoxin A (Sigma, ref. 32937) dissolved in ethanol/water (60/40) and stored at −20° C. Screening assays were performed with […] OTA solution and different enzyme concentrations (for example, 0.1-5 mg/ml) in a final volume of 300 μL. Enzymatic reactions were done at 37° C. for 20 h±1 h under constant agitation. Samples were filtered using syringe filter 0.20 μm for HPLC analysis. The HPLC apparatus consisted of a Dionex P580 pump and Dionex ASI-100 autosampler connected to a Dionex RF-2000 fluorescence detector (λex=333 nm; λem=460 nm) and a Dionex UVD340 U UV detector at 257 nm. Elution was through a nucleosil 100-5 C18 column (250×4.6 mm, 5 μm particle size; Chrompack) with water/acetonitrile/acetic acid (100:100:1, v/v/v) at a 0.6 mL/min flow-rate. The column was kept at 30° C. and was connected to guard column (C18, 1 mm, Optimize technologies). The OTA and its degradation products were monitored both by uv at 235 nm and fluorescence (excitation at 278 nm emission at 440 nm).
Thirty enzymes including various lipases, proteases and amdiases were investigated for their ability to degrade ochratoxin A (Table 1). […] To facilitate the comparison of these three enzymes, the protein concentration of PEPAd was determined and enzyme solutions of carboxypeptidase A and Amano™ lipase A were prepared at the same concentration (1 mg/ml). A kinetic of the degradation was carried out (FIG. 1). […] Amano™ lipase A product was a mixture of different enzymes with the dominant activity being lipase. […] Other proteases, lipases and amidases listed in Table 1 were not able to break OTA down (data not shown).

Data set [3] is described as follows: activity of three fungal amidases on ochratoxin A (intracellular cell-free fraction). In kind it is biochemical. Conditions: for Activity on ochratoxin A expressed as ochratoxin A peak area: remaining OTA, 20 μl intracellular cell-free fraction, pH7, 23° C., 17 h. As for the experimental part: The reaction mixture using OTA as substrate consisted of 75 μl phosphate (67 mM, pH7), 5 μl OTA (2.4 μg/ml) and 20 μl intracellular cell-free fraction. The reaction was performed at 23° C. for 17 h and stopped by adding 0.15 ml acetonitrile and analyzed on HPLC with an injection volume of 5 μl.

The conditions of data set [4]: Abrunhosa et al., Toxins 2010; cited from earlier work.

Like-named read-outs stand apart in the source and are kept apart here.

As to `C[C@@H]1Cc2c(Cl)cc(C(=O)N[C@@H](Cc3ccccc3)C(=O)O)c(O)c2C(=O)O1` [OTA, ochratoxin A], in data set [1], the “elimination half-time in the body” value is on record as 103 h.

For `C[C@@H]1Cc2c(Cl)cc(C(=O)O)c(O)c2C(=O)O1` [ochratoxin α], in data set [1], the “elimination half-time in the body” value is listed as 9.6 h.

Turning to “porcine elastase: serine protease elastase from porcine pancreas (Sigma E0258) [reference compound]”, the “ability to degrade ochratoxin A” value in data set [2] (37° C.) is reported as “showed certain activity with OTA”.

B1: amidase from Aspergillus oryzae: hypothetical protein from Aspergillus oryzae (XP_001826758) expressed intracellularly in Aspergillus niger (protein, listed as Aspergillus oryzae)
chain: MHRMLTDDRLYRVDADLLIPGKGDPIPHGAVVWQCKTIRYAGPRSGVPTEFQGATTTHVPVVMPGMWDCHIHFLGATAATMNAIVDTPQALAGARSVPDLHATVMAGFTSVREVGGYGCDLAKAVGEGRIPGPNIYSSHSAISMTAGHGDVHGVHRDSLLDLCAHGLPLTIADGVPECLLAVRKQLRRGAKVIKVCASGGVVSAIDDPQHQEFSFEELKAIVDEAARARRVVAAHCHGKAGIMNALRAGCRTIEHGSFLDEEAVGLMKEKGAILVATRSVIESGLAMKDLFTPSSYQKLLAVADAHRKAYQLAISRGVTIALGTDQFISSDNPMIGYGRNGHEVRYAVDAGLTPLAAIEAATANGPLTLGYQAPQSGQLKEGYDADIIAVRENPLENVAVLSNSKNVTHVWRGGMLIKS
Regarding B1, in data set [3], the “Activity on ochratoxin A expressed as ochratoxin A peak area” value (“Activity on ochratoxin A expressed” for short) amounted to 8.57.

B2: yeast carboxypeptidase Y: Carboxypeptidase Y from baker's yeast (Saccharomyces cerevisiae) (protein, listed as Saccharomyces cerevisiae)
chain: MKAFTSLLCGLGLSTTLAKAISLQRPLGLDKDVLLQAAEKFGLNLDLDHLLKELDSNVLDAWAQIEHLYPNQVMSLETSTKPKFPEAIKTKKDWDFVVKNDAIENYQLRVNKIKDPKILGIDPNVTQYTGYLDVEDEDKHFFFWTFESRNDPAKDPVILWLNGGPGCSSLTGLFFELGPSSIGPDLKPIGNPYSWNSNATVIFLDQPVNVGFSYSGSSGVSNTVAAGKDVYNFLELFFDQFPEYVNKGQDFHIAGESYAGHYIPVFASEILSHKDRNFNLTSVLIGNGLTDPLTQYNYYEPMACGEGGEPSVLPSEECSAMEDSLERCLGLIESCYDSQSVWSCVPATIYCNNAQLAPYQRTGRNVYDIRKDCEGGNLCYPTLQDIDDYLNQDYVKEAVGAEVDHYESCNFDINRNFLFAGDWMKPYHTAVTDLLNQDLPILVYAGDKDFICNWLGNKAWTDVLPWKYDEEFASQKVRNWTASITDEVAGEVKSYKHFTYLRVFNGGHMVPFDVPENALSMVNEWIHGGFSL
As to B2, in data set [2] (37° C.), the “ability to degrade ochratoxin A” value is “showed certain activity with OTA”. Further, in data set [4], the ochratoxin degrading activity entry was “low ochratoxin degradding activity”.

B3: carboxypeptidase A: Carboxypeptidase A from bovine pancreas (Sigma) (protein, listed as Bos taurus)
chain: MQGLLILSVLLGAALGKEDFVGHQVLRITAADEAEVQTVKELEDLEHLQLDFWRGPGQPGSPIDVRVPFPSLQAVKVFLEAHGIRYRIMIEDVQSLLDEEQEQMFASQSRARSTNTFNYATYHTLDEIYDFMDLLVAEHPQLVSKLQIGRSYEGRPIYVLKFSTGGSNRPAIWIDLGIHSREWITQATGVWFAKKFTEDYGQDPSFTAILDSMDIFLEIVTNPDGFAFTHSQNRLWRKTRSVTSSSLCVGVDANRNWDAGFGKAGASSSPCSETYHGKYANSEVEVKSIVDFVKDHGNFKAFLSIHSYSQLLLYPYGYTTQSIPDKTELNQVAKSAVEALKSLYGTSYKYGSIITTIYQASGGSIDWSYNQGIKYSFTFELRDTGRYGFLLPASQIIPTAQETWLGVLTIMEHTLNNLY
For B3, the “conversion of OTA” value in data set [2] (after 7 h reaction at 37° C., enzyme 1 mg/ml) is reported as “full conversion of OTA was obtained”. Further, the “ability to degrade ochratoxin A” value in data set [2] (37° C.) was “able to breakdown OTA”. The ochratoxin degrading activity result in data set [4] is “low ochratoxin degradding activity”.

B4: amidase from Metarhizium anisopliae: putative amidohydrolase from Metarhizium anisopliae (EFZ00058) expressed intracellularly in Trichoderma reesei (protein, listed as Metarhizium anisopliae)
chain: MTRRVIPHSESAESVDDAQHVSGRIYSTGFGIAVRTGQPQSQDDDAETGVKKVFYTIVMTKLLIPGDGEPIKDAALVVKNKIIDWVGRQADLPNEYTEKPHKLHNVPYLMPGLWDCHVHFAGSNGEREAEEGSTGLSFLADHPTTAGARLARGCWDAIQRGYTSMRDLAGFGCEISKAIEDGVIIGPNIYSAGACLSQLAGHGDVFALPAGDALLNLGLASVKAGQFGAGMSCLVDGVDECRRGVRLQIRRGAKCIKVMASGGVLSRDDNPLYAQFSREELDTIVSEAKRMERTVAAHVHGKPGILQAVEAGVTSVEHVSFADQECIDLIKDRGTIFVGTRTIVNLLLDSKGEGMPKKMWEKAKLVGTHSLEGYKKAIKAGCTIALGTDTEPGFNMAIELQYAVEAGMSSLEAIKAATANGPLTVAGQAPLTGQLKAGYEADMIGVCDNPVEDVKVLQKKSNIGWVWKGGKLFKGPGIGPWGEEL
B4: in data set [3], the “activity in degrading ochratoxin A (in words)” value was “showed activity in degrading ochratoxin A” and the “Activity on ochratoxin A expressed” value is given as 0.96.

B5: PEPAd: a Danisco aspartic acid protease cloned from A. niger (protein)
chain: MHLPQRLVTAACLCASATAFIPYTIKLDTSDDISARDSLARRFLPVPNPSDALADDSTSSASDESLSLNIKRIPVRRDNDFKIVVAETPSWSNTAALDQDGSDISYISVVNIGSDEKSMYMLLDTGGSDTWVFGSNCTSTPCTMHNTFGSDDSSTLEMTSEEWSVGYGTGSVSGLLGKDKLTIANVTVRMTFGLASNASDNFESYPMDGILGLGRTNDSSYDNPTFMDAVAESNVFKSNIVGFALSRSPAKDGTVSFGTTDKDKYTGDITYTDTVGSDSYWRIPVDDVYVGGTSCDFSNKSAIIDTGTSYAMLPSSDSKTLHSLIPGAKSSGSYHIIPCNTTTKLQVAFSGVNYTISPKDYVGATSGSGCVSNIISYDLFGDDIWLLGDTFLKNVYAVFDYDELRVGFAERSSNTTSASNSTSSGTSSTSGSTTTGSSTTTTSSASSSSSSDAESGSSMTIPAPQYFFSALAIASFMLWL
modifications: Aspergillus niger
Take B5: the “conversion of OTA” value in data set [2] (after 1 day reaction, 37° C., same protein concentration (1 mg/ml)) is “full conversion was not reached”. Besides, the “ability to degrade ochratoxin A” value in data set [2] (37° C.) is recorded as “showed an OTA converting activity although this was less efficient”.

B6: amidase from Glomerella graminicola: putative amidohydrolase from Glomerella graminicola (EFQ25792) expressed intracellularly in Trichoderma reesei (protein, listed as Glomerella graminicola)
chain: MGGSFRPNYADGPEPPFSPTKKTTLVIIKTSLLIPGDGEPLKDGALVISSKVIAWVGPQSSLPSEYADSPHRSYTVPYLMPGLWDCHAHFGGESPNDDGGNDPYQVFITEHPAASGARLTRGCWLALQRGYTSLRDVAGLGCEVSRAIEDGSIVGPNVYSSGSGLSQLAGHGDIFSLPAGDVLLNLGVSQITPGHFGTHATMIVDGVDECRRAVRLQIRRGAKCIKVMASGGVMSRDDNPNYAQFSAAELETIVEEATRQNRVVAAHVHGKAGILAAINAGVTTLEHASFADRECIDLIKEKGIVYIATRIVVHLLLSTGGKGLPPTVWEKAKLVAKNHMTAYKMAIESGVQIALGTDTGPGYNMATELECAVEAGMSNLEAIKAATANGPLSVGGQAPKTGQLKVGYEADVIGLLQNPVEDVKVLQKVDNVGWVWKGGKLFKGPGVGPWGEEPGVWEDITGVSRLRCTTGY
With B6, the “Activity on ochratoxin A expressed” value in data set [3] amounted to 0.68.

The values are drawn from patent US9113649B2, “Food additive comprising an amidase for detoxifying ochratoxin” (DuPont Nutrition Biosciences ApS, priority 2010, dated 2015).
